The source of these data is the supplement of paper PMC12636428.

The subject of the data set is Saccharomyces cerevisiae. As to the kind of experiment: transcriptional activation domain activity (GFP:mCherry ratio, weighted mean of sorted bins, harmonized to initial dataset scale) (arbitrary fluorescence ratio units); higher = stronger transcriptional activation. The conditions noted are these: beta-estradiol 1 µM; induction time 4 h. The gist of the method: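 Values are activation activity, found as the read-weighted mean of bin median fluorescence, averaged across barcodes and then mapped linearly onto the initial dataset scale. Barcoded protein tiles fused to an estradiol-inducible synthetic transcription factor were integrated at the URA3 locus of GFP-reporter yeast diploids. Cells were induced for 4 hours at 30 °C with 1 uM beta-estradiol in SC, sorted into 8 bins by GFP:mCherry ratio, and barcode-sequenced, with tiles under 50 reads discarded.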

In the case of “GGDSVVDILFSQTSATEFVTVGGTGNVYHWDMEYSFSRNDDDNEDEVRVAAPE”, the “transcriptional activation domain activity” value is 38300.

For “RALPPFFSFFPFFRSCPLPLLSLPFSHPCFPLRLVSFFFFLLFCFSFFFILTC”, the “transcriptional activation domain activity” value was found to be 32900. Take “QEQEQEGMELGIKEGPADPRCKTCGRTEGTRKCTGCGRVRYCGRECQKKDWKV”: the “transcriptional activation domain activity” value was 29700.

As for “PDISAYDDERLKEGRLIAEFILNRTQYAPDETSKNDRVSDSEVPWMDFPSELN”, the “transcriptional activation domain activity” value came to 37600.

On to “TIIGLTSAVLLPVVVFIPYIPCWLFLYLVNLLFPLIFICFTGKVIQLTFLYYS”, for which the “transcriptional activation domain activity” value was determined as 50100.

In the case of “HRRHHVLLPHPAHTLLKGCFEPAFHNSIWHILSCHMYIPCTPILLLLIIQHVL”, the “transcriptional activation domain activity” value turned out to be 33200. With “MDVEAKGRADRDAKRNPTACEHCRAARTRCQPSEQPGVCKKCLALKRECISRT”, the “transcriptional activation domain activity” value stood at 16500. Take “DREAKEDGGDTGGGGGRDRGGEEEEDEEEEEEEEEDDGFIKKTKKDKKKKKKK”: the “transcriptional activation domain activity” value was 36100. Regarding “PSCCLSFFPDFSFFSVFFSLLVYFPFRALYDLLFVDLLLILFLFILIFFHLFL”, the “transcriptional activation domain activity” value came to 33000. On to “MSWPFFYLSFSLFFPPLLLDRGLLLLCGFFFLFLYIFLPGILWHLEAWFFLLV”, for which the “transcriptional activation domain activity” value was determined as 59300. For the sequence “ANLAFPDDNSTNIQLQPFSESQSQNKFDYDMFFRDSSKEGNNLFGEFLEDDDD”, the “transcriptional activation domain activity” value stood at 92800. With “LPSLAQIDVLIRRERMVTIERHPLCLSLVVASQYTLGPLLLLRIVHCIYKTYG”, the “transcriptional activation domain activity” value stood at 58200. Under “LSSSPSAQIATNTNVVFILGSDDKRVKEVGDALKTKLGVKGGGKGSKWSGKFG” stands 33200; under “MGIRYHWLVFFCPFFSFTFASCFVLFVGMLFCFIILDYGCFSFLPLWFFFCPE”, 18700.

In the case of “APAAEPVAAATIEEAPKETAEASTATEETAEEKKEEKEKKEKEKKAKLGRRLS”, the “transcriptional activation domain activity” value was 30700. “PSNQAFWIACLFSSVMYHLLFHLLLLFFSLLFLFFLFFLPSYHVLFHFHHMTG”: the “transcriptional activation domain activity” value was 47700. Regarding “FRSFVLMRLLVPIPAYFVLSCMFSMINLPFKLSFGGMGYGYGAGFMIWWCFTF”, the “transcriptional activation domain activity” value worked out at 65100.

For the sequence “MGLRTTPDYQKVEFTVTDIGLILKTLWICADLITFLFPLQRLVFHALVLLFSF”, the “transcriptional activation domain activity” value stood at 62300. “MYILDKIKGEKGKQEGGEREAERGRGGAGRGEQEQEGGAGAGRGSRSKKGEQG”: the “transcriptional activation domain activity” value turned out to be 30700. Regarding “YFVYLLQLIYYICFSIGVSFSMKVFDYVTFMDSITGHAGHMLCVCIFFLIGAV”, the “transcriptional activation domain activity” value came to 75800. With “YMEIVCEKQLLVVSKVNRGWLYMAITQADLVYWATLSLASHYRDSKSVALTYF”, the “transcriptional activation domain activity” value amounted to 62500. For “AQKVKNESDTDERPAPVKKGRKAATSKVKDESEDEAPAPAPAKRGRRAAAVKA”, the “transcriptional activation domain activity” value was 47500. Consider “YSIQVFMVPQLAICKVDSIGNVIGGQGGCYNLIPVFDWVRRCVVSIFLVFMVA”, for which the “transcriptional activation domain activity” value stood at 71500. Take “PGVRGNTESIFLLICNLPYLEHPDKVARTVYKIIWGEHHRNLLRLTYWLHRCP”: the “transcriptional activation domain activity” value came to 68200. Consider “MLLGRHIFLYFILSFFLSFWLHTIPYLLLDFTYYHNPIISTLPTSYFFSIFLI”, for which the “transcriptional activation domain activity” value worked out at 72200. As to “SERSERRADERSSRNGPSEAERGSERERGGREKRGGDRESSRRERERGGEARE”, the “transcriptional activation domain activity” value came out at 17200.

“MILFFFAHRGLFLVYSASFCLCCDCLYFFLVYTFFFTLHNPFFLVPLFFSIIL”: the “transcriptional activation domain activity” value was found to be 62900. Turning to “ARAYISLCWRMIVTKGLHRPPVSSVVDKALRKRQLKLLMVLYYNDFTNAVYSG”, the “transcriptional activation domain activity” value worked out at 52300. For the sequence “RKDALLKTSFGGTVFAVRQIGGDRFHGMPFVHLMVIVICLHWTWLRAVIFLGR”, the “transcriptional activation domain activity” value was determined as 52800. Regarding “YASVLSLIMFFPLPFLSGEILDISRNCYILDVFFHWLMVVCGGLGSWAVFWST”, the “transcriptional activation domain activity” value was found to be 78700.
